Test results reported in PMC9381698, “Generation of synthetic antibody fragments with optimal complementarity determining region lengths for Notch-1 recognition” (Frontiers in Microbiology, 2022).
Changes are numbered by the printed parent chain.

B1: Fab N1/F/R2 (purified soluble Fab) (Fab, V domains shown)
VH: EVQLVESGGGLVQPGGSLRLSCAASGFNFSSSSIHWVRQAPGKGLEWVASIYSYYGYTYYADSVKGRFTISADTSKNTAYLQMNSLRAEDTAVYYCARSWWGGSWYAALDYWGQGTLVTVSS
VL: DIQMTQSPSSLSASVGDRVTITCRASQSVSSAVAWYQQKPGKAPKLLIYSASSLYSGVPSRFSGSRSGTDFTLTISSLQPEDFATYYCQQWWSLITFGQGTKVEIK
notes: light chain on the modified trastuzumab framework of Library-F (Persson et al., 2013); CDRs L1 and L2 fixed; clone reconstructed from NGS information; Fab heavy chain on the modified trastuzumab framework of Library-F; medium CDRH3 length; The Fab is detected by an anti-HIS antibody; source: E. coli BL21, purified (Protein-L resin)
B2: Fab N1/F/R3 (purified soluble Fab) (Fab, V domains shown)
VH: EVQLVESGGGLVQPGGSLRLSCAASGFNIYSSYMHWVRQAPGKGLEWVASIYPYYGYTSYADSVKGRFTISADTSKNTAYLQMNSLRAEDTAVYYCARYFSYGPFYYGSGLDYWGQGTLVTVSS
VL: B1 VL with W91G, W92F
notes: as for B1
B3: Fab N1/F/R2 (Fab, V domains shown)
VH: B1 VH
VL: B1 VL
notes: Library-F rare Fab reconstructed from NGS information, modified trastuzumab framework; Library-F rare Fab reconstructed from NGS information, modified trastuzumab framework, CDRs L1 and L2 fixed; The Fab has a His tag (detected with anti-HIS antibody and biosensors); Library-F framework: Persson et al., 2013; source: E. coli BL21, purified (Protein-L resin)

What was measured:
Settings in all cases: both partners purified
[1] = target: T1, recombinant Fc-tag-fused human Notch-1 extracellular domain (Homo sapiens, UniProt P46531); assay: BLI; Octet RED384; Fabs immobilised on amine-reactive generation-2 or anti-Fab CH1 biosensors, target proteins in solution at three or more concentrations; 25 C, PBS; global 1:1 fit; apparent KD (Fc-Notch proteins may dimerize, avidity)
T1 construct: Notch-1, human, extracellular domain; No catalogue number and no residue limits are printed; also called N1; source: bought: R&D Systems
T1 sequence (P46531 19-1735): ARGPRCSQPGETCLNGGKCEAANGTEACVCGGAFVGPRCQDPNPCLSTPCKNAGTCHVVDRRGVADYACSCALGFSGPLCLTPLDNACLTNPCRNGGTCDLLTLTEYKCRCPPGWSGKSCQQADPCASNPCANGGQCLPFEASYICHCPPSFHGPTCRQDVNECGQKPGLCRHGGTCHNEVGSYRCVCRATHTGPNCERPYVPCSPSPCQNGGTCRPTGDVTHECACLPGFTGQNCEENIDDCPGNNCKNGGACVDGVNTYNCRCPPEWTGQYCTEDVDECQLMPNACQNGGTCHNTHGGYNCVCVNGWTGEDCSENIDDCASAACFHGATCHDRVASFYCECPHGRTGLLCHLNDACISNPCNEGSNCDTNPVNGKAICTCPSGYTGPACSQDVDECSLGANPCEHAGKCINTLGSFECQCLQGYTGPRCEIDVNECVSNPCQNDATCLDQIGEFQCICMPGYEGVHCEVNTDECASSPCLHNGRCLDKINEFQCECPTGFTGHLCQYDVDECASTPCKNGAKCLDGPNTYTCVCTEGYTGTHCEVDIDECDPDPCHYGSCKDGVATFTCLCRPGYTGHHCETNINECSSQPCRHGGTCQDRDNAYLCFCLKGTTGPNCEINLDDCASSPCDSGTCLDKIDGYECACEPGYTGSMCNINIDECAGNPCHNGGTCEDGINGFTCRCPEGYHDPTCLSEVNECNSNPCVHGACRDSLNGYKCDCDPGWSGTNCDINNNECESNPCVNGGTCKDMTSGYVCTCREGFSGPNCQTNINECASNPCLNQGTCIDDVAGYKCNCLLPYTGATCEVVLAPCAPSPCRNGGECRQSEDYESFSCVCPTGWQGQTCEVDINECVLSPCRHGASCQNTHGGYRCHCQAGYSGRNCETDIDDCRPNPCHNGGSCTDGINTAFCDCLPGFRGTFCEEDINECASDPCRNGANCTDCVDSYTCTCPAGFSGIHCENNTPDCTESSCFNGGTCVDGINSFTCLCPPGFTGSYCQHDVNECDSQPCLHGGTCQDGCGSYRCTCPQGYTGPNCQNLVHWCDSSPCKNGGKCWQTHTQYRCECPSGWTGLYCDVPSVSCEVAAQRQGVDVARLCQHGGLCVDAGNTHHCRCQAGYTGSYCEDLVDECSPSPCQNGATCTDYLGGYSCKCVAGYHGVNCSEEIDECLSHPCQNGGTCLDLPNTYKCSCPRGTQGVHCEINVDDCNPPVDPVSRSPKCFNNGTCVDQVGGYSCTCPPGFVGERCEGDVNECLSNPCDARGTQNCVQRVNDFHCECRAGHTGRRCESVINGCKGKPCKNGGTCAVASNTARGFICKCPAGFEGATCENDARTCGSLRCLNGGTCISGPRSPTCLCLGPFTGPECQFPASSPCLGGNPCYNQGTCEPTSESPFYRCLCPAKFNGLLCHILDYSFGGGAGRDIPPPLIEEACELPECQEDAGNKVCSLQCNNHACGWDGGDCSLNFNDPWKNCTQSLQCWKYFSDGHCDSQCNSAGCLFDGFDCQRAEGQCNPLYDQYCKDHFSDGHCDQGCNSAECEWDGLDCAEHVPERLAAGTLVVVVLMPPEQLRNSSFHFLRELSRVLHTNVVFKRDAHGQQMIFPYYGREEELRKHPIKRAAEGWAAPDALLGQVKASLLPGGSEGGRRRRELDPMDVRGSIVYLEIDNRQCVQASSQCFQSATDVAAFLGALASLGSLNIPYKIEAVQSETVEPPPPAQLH

[2] = target: T2, Jagged-2 receptor ectodomain (Homo sapiens (assumed), UniProt Q9Y219); assay: as above
T2 construct: Jagged-2 ectodomain; it may be an Fc fusion like the Notch proteins; also called J2
T2 sequence (Q9Y219 27-1080): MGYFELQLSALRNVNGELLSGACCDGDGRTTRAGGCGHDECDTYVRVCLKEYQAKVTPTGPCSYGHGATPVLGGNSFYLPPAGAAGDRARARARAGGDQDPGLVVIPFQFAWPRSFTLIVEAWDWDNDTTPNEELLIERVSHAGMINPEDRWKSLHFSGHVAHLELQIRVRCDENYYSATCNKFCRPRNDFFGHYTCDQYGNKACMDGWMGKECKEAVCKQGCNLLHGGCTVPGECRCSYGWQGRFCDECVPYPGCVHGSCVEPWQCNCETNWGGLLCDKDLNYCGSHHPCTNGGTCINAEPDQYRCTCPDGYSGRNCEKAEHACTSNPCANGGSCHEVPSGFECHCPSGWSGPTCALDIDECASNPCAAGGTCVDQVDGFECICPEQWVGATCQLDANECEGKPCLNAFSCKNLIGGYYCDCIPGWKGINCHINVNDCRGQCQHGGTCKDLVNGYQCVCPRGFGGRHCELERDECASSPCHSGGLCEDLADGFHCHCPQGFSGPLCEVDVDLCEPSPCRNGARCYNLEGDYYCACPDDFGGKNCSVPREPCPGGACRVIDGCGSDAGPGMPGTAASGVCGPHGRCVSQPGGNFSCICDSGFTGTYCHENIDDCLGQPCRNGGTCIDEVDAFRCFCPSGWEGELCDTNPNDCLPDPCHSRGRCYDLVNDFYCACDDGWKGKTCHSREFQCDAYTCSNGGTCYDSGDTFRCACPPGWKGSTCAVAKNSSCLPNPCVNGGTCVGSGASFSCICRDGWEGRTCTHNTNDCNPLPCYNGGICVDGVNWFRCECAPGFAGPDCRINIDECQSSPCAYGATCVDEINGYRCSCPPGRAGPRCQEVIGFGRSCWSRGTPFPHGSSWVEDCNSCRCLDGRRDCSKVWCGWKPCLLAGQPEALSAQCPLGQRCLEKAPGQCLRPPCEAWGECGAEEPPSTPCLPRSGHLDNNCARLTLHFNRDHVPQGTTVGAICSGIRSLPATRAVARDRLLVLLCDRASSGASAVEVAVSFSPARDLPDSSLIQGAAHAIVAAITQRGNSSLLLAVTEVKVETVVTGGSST

[3] = target: T1, recombinant Fc-tag-fused human Notch-1 …; assay: ELISA; multi-point Fab-ELISA: target immobilised at 5 ug/ml on MaxiSorp plates; purified Fab 0.01 nM-1 uM in PT for 30 min; detected with HRP-conjugated anti-HIS antibody; EC50 from a one-site specific-binding fit
[4] = target: T2, Jagged-2 receptor ectodomain; assay: ELISA; single-point Fab-ELISA for specificity: proteins immobilised at 5 ug/ml on MaxiSorp plates; purified Fab at 1 uM; detected with HRP-conjugated anti-HIS antibody, Abs450
[5] = target: T3, Jagged-2 receptor ectodomain (Homo sapiens (assumed), UniProt Q9Y219); assay: BLI; Fabs immobilised on amine-reactive generation-2 or anti-Fab CH1 biosensors, target proteins in solution at at least three concentrations; 25°C, PBS; global fit to a 1:1 binding model; apparent constants (Fc fusions may dimerize)
T3 construct: Jagged-2 ectodomain; Probably an Fc fusion like the Notch proteins (surmise); also called J2
T3 sequence (Q9Y219 27-1080): as above

[6] = target: T4, recombinant Fc-tag-fused human Notch-1 extracellular domain (Homo sapiens, UniProt P46531); assay: as above
T4 construct: Notch-1, human, extracellular domain; the R&D Systems product may hold only part of the ectodomain (surmise); also called N1; Fc-Notch; source: bought: R&D Systems
T4 sequence (P46531 19-1735): as the sequence (P46531 19-1735) above

| Binder | Kd [1] | Kd [2] | EC50 [3] | binding result [4] | koff [5] | kon [5] | koff [6] | kon [6] |
| --- | --- | --- | --- | --- | --- | --- | --- | --- |
| B1 | 1.38 nM | 70.4 ± 2.3 nM | ~4 nM |  |  |  |  |  |
| B2 | 6.6 nM |  | 37 nM | binds |  |  |  |  |
| B3 |  |  |  |  | 0.0226 s⁻¹ | 313000 M⁻¹ s⁻¹ | 6.91e-05 s⁻¹ | 54400 M⁻¹ s⁻¹ |
